# Results taken from IntAct's records for PubMed 19236849.
# B1: NAD-dependent protein deacetylase sirtuin-1 (Homo sapiens), Q96EB6 (parent)
# chain: MADEAALALQPGGSPSAAGADREAASSPAGEPLRKRPRRDGPGLERSPGEPGGAAPEREVPAAARGCPGAAAAALWREAEAEAAAAGGEQEAQATAAAGEGDNGPGLQGPSREPPLADNLYDEDDDDEGEEEEEAAAAAIGYRDNLLFGDEIITNGFHSCESDEEDRASHASSSDWTPRPRIGPYTFVQQHLMIGTDPRTILKDLLPETIPPPELDDMTLWQIVINILSEPPKRKKRKDINTIEDAVKLLQECKKIIVLTGAGVSVSCGIPDFRSRDGIYARLAVDFPDLPDPQAMFDIEYFRKDPRPFFKFAKEIYPGQFQPSLCHKFIALSDKEGKLLRNYTQNIDTLEQVAGIQRIIQCHGSFATASCLICKYKVDCEAVRGDIFNQVVPRCPRCPADEPLAIMKPEIVFFGENLPEQFHRAMKYDKDEVDLLIVIGSSLKVRPVALIPSSIPHEVPQILINREPLPHLHFDVELLGDCDVIINELCHRLGGEYAKLCCNPVKLSEITEKPPRTQKELAYLSELPPTPLHVSEDSSSPERTSPPDSSVIVTLLDQAAKSNDDLDVSESKGCMEEKPQEVQTSRNVESIAEQMENPDLKNVGSSTGEKNERTSVAGTVRKCWPNRVAKEQISRRLDGNQYLFLPPNRYIFHGAEVYSDSEDDVLSSSSCGSNSDSGTCQSPSLEEPMEDESEIEEFYNGLEDEPDVPERAGGAGFGTDGDDQEAINEAISVKQEVTDMNYPSNKS
# Variants of: B1
# Settings: with csk21_human CSNK2A1, P68400
# Sequence of csk21_human CSNK2A1, P68400 (P68400 whole entry, looked up): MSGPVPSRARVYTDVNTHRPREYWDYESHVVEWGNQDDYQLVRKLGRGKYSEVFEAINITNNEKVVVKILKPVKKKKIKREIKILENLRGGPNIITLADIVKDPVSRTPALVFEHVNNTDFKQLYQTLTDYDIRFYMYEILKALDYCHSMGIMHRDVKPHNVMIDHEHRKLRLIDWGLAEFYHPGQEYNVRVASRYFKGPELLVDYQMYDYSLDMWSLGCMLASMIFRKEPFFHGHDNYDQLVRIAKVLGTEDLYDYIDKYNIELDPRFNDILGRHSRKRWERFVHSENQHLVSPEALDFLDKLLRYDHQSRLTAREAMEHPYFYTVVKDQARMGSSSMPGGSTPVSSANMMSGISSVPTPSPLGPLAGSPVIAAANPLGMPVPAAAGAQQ
row,effect of a mutation on the interaction,Variant
1,decreasing interaction,S659A;S661A
